According to the Human Domainome abundance scans (Beltran et al. 2025):

B1: Lysine-specific demethylase 5C, residues 319 to 373; numbered along this chain, P41229 (parent)
chain: AQFIESYVCRMCSRGDEDDKLLLCDGCDDNYHIFCLLPPLPEIPKGVWRCPKCVM
B2: Pre-mRNA-processing factor 40 homolog B, residues 274 to 332; numbered along this chain, Q6NWY9 (parent)
chain: SNREKAKQAFKELLRDKAVPSNASWEQAMKMVVTDPRYSALPKLSEKKQAFNAYKAQRE

Variants of: B1
Test: abundance fitness (aPCA) (normalised: wild type 0, dead -1); higher = more abundant; growth selection in yeast, the domain comes from the species named
Details: Homo sapiens

Abundance fitness of substitutions, site by site:
A1: V -0.297; I 0.146; T -0.704; W -0.242; E -0.143; D -0.009; L -0.331; M 0.135; S -0.244
Q2: C -0.446; H -0.187; K 0.247; L -0.119; P -0.141; N -0.019; M -0.109; G -0.446; A -0.273; F -0.531; I 0.186; R -0.271; E -0.258

Variants of: B2
Test: as above
Details: Homo sapiens

Abundance fitness: each site, then its substitutions
R58: M 0.184; T -0.108; F -0.162; V 0.085; A 0.188; G 0.093; S -0.008; L 0.212; Y 0.1; I -0.648; H -0.013; K 0.008; D -0.244; C 0.26; W 0.061; P -0.018; Q 0.16
Q49: T -0.364; V -0.205; W -0.643; Y -0.544; S -0.162
A56: L 0.034; P -0.454; S -0.016; M -0.127; G -0.242; V -0.076; C -0.451; W -0.293; Q 0.027; H -0.102; N -0.18; K -0.015; T -0.122; I -0.261; R -0.116; Y -0.351; F -0.526
N52: D -0.038; F -0.901; R -0.053; W -0.431; G -0.282; P -0.367; M 0.039; E 0.253; H -0.053; L -0.04; A -0.09; K 0.031; V -0.11; T -0.231; Y -0.21; C -0.129; Q 0.062; S -0.072
Y54: L -0.085; E -0.363
E59: F -0.53; K 0.055; S -0.397; M 0.167; W -0.54; L -0.424; T -0.109; H -0.204; G -0.212; Q -0.033; D -0.203; C -0.216; R -0.189; V 0.042; A 0.184
A50: E -0.224; W -0.627; L -0.084; Y -0.895; M -0.076; I -0.194; P -0.351; R -0.818; K -0.765; S -0.382; D -0.299; C -0.008; N -0.629; Q -0.212; F -0.485; T -0.43; G -0.462; H -0.606
A53: F -0.835; G -0.293; V -0.274; R -0.452; E 0.317; K -0.174; N -0.079; L -0.314; I -0.372; M -0.394; H -0.476; D 0.042; S -0.089; P -0.494; Y -0.524
Q57: H -0.149; M -0.322; F -0.514; P -0.249; D 0.158; A 0.046; Y -0.715; R -0.286; I -0.565; L -0.527; T -0.165; S 0.027; E 0.248; V -0.257; C -0.156; N -0.163; W -0.138
F51: S -0.463; K -0.371; G -0.28; W -0.61
K55: E -0.333; A -0.304; H -0.258; S -0.25; M -0.356; C 0.12; D -0.29; I -0.11; V -0.139; Q -0.239; R -0.18; T -0.242; Y -0.644; P -0.359; N -0.337; F -0.652; W -0.947
